According to the DeepSol protein solubility set:

Assay: soluble on expression in E. coli; label from the status in PepcDB or PDB records

Row | Sequence | soluble on expression in E. coli
1 | MQHYLHIRPAPSDNLPLVDLIEHPDPIFDPKEKDLNETLLRSLLGGHYDPGFMATSPPEDRPGGGGGAAGGAEDLAELDQLLRQRPSGAMPSEIKGLEFSEGLAQGKKQRLSKKLRRKLQMWLWSQTFCPVLYAWNDLGSRFWPRYVKVGSCFSKRSCSVPEGMVCKPSKSVHLTVLRWRCQRRGGQRCGWIPIQYPIISECKCSC | soluble
2 | MRITSTANPRIKELARLLERKHRDSQRRFLIEGAREIERALQAGIELEQALVWEGGLNPEEQQVYAALGRVGRLALLEVSEAVLKKLSVRDNPAGLIALARMPERTLEEYRPSPDALILVAVGLEKPGNLGAVLRSADAAGAEAVLVAGGVDLYSPQVIRNSTGVVFSLRTLAASESEVLDWIKQHNLPLVATTPHAEALYWEANLRPPVAIAVGPEHEGLRAAWLEAAQTQVRIPMQGQADSLNVSVSAALLLYEALRQRLLRDRLTKTHSTL | soluble
3 | SGERDQSSDTDQERKGGKHPYSSHYSSDFGSSPQSSGPSSPVNTPPCASNREKNPKRHLSDHHVRHQTVRKVSPKAIPNKKGVRVGFRSQSLNREPLRKDPDIVTKRVLSARLLKITELQNEVSELQVKLAQLLKENKALKSLQYRQEKALSKFEDAENEISQLIHRHNGEITALKERLRKSQEKERMAEKRVKDTEGELFRTKFSLQKLKKISEARHLPERDDLAKKLVSAELKLDNTEKD | not soluble
4 | SNAMPLPKSLKYGDTIGIYSPSSPVTYTSPKRFERAKSYLLQKGFHILEGSLTGRYDYYRSGSIQERAKELNALIRNPNVSCIMSTIGGMNSNSLLPYIDYDAFQNNPKIMIGYSDATALLLGIYAKTGIPTFYGPALVPSFGEFEPFVDDTYKYFLETLLHDQALPYNIKQPLFWSDEFINWEEKTKEKELRPNNWISVTNGQATGRVIGGNLNTIQGIWGSPYMPCIQEGDILFIEDSSKDAATIERSFSFLKINGVFDKVSGIILGKHEQFDDCGTNRKPYEILLEVLQNQRIPLLADFDCCHTHPMITMPIGVQVKMDATNKTIHILEKWKI | soluble
5 | MSLNNDRFAKQRVADDLDEPVEEAGNLARKLGLKPYPVNYWIVDYDEMNELIAYGGFQQRYPHWRWGMQYDRQQKQGQFLGGKAFEIVNNDDPAHAFLQESNTLADQKAVITHVEAHADFFANNEWFRMFTDGSSRTTTDESGEDRRRGPDAAGMLARHGDTIQEYMQDPDIERAEVERFIDHVLCLEDNIDQHIPYSPVETVPEEFEDIEGADVTEQLDDLELSEEVKRQVFDEEWLDAQRDDDENVTFPAEPDKDVLGFLRKHGMQYDADAERATEMEDWQIELLELLRREAYYFAPQKMTKVMNEGWASYWESLMMTGEQFAGDDEFILYSDHMSKVLGSGGLNPYSLGLEIWEYVENTENRREVIERLLRVKGITWRNFDDSVDYEMVQGRESHNDVTFLDEFLTQEFVDDNDYFTYEYTHASGDYRVTSTDHEDVKKKLMLQFTNFGKPTVVVEDGNYQNRNELLLAHQYNGVMLDIGQAKEVLKRTFELWGRPVNLLTIVKEFDDHDVEVAKREGHHHHHH | not soluble
6 | MGSDKIHHHHHHMADRMQWANALSTRPSLEAAVTDVVQRAVSTLTAPADLGLVFISSAFASEYSRVLPLLAEQLSVPVMIGCSGGGVIGTAASGQTQELEAEAALSLTLAHLPGVNLQVFHVLGEELPDLDSPPDTWINLIGVPPSPTPHFILLSSAFSSGINDLLQGLDFAYPGSVILGGQASVGGMGGRLALFCNGSLHREGTVGLALSGNIVLEPIVAQGCRPIGEPLQVTKAERNIILELDEKVPLVVLRDLIASLSEKERALAQHSLFVGVAMDEFKLSLQQGDFLIRSILGVDPSGGAIAIGDLVRPGQRLQFHLRDSQASAEELEFLLERYQTKPEFDNSAVGALMFSCVGRGEGLYGKPNFDSELFKRYIQDVPVGGFFCGGEIGPVGGRTFLHGYTSVFGICRELSVED | not soluble
7 | MGSDKIHHHHHHMQRDLGKNVKLFNDIKADDLSVMLSCLGVKNQQYEKRSIIIMAEDNVDHVGVVLRGAVLIVKEDFSGNRSIVDHIGQYEMFGEAFACAGIQKSPVTVVAAEKSEIMWIQFRRIFNTCSMSCVFHAKLIENMMKVLAVKNLQMNQKLEITSKRNLRDKLMAYLLIQAKEAKSFDFIIPLNRSELADYLYVDRSALSRELCKMRDEGLIEFKKNHFCMSPM | not soluble
8 | MSGAVLPAVLVVPKMESVVVPIAESTVINAKDTTPSTAADNDVSPSPSEPDTDAIKMFVGQIPRQWNETDCRRLFEKYGSVFSCNILRDKSTQASKGCCFVTFYHRKDAIEAQGALHNIKVIEGMHHPVQMKPADTENRNERKLFIGQLSKKHNEENLREIFAKFGHIEDCSVLRDQDGKSRGCAFVTFTNRSCAVVATKEMHHSQTMEGCSAPLVVKFADTQKDKDVKTKSMITGSGAGSPKGGAASLLQNLNPALLQQLGGGQNYQAVASLLSLINGQQGQQQQHQQQQNVLGILGTVLSALGKLTEGGDDASAKSSSEKPRHQALMTSPAPTATSSTSSSASHHHQQHQQQLSQQQQQQQHPQQQGLGNPLLGNPAMAAQNQFDAITMAQIAHQQQMLALQGFAVQQGAPSQQQQGLAGGMAGAKTTSPVAASLANHQQIALTPFAGGAAALDHFQAMQQYALLANLQATGGVGVQATTSAAQMVGNGDVKGPDGANLFIYHLPQDFGDSDLINTFAPFGGILSAKVFIDKVTNLSKCFGFVSYENAQSATNAISAMNGFQIGSKRLKVQLKVDRGNPYNR | not soluble
9 | MGSDKIHHHHHHVSATISDLDRLLVAIAAIPTPWKEWPGGYPGRLDLALVDAVMSIRFRYGRERKDGSWTGARGAVLRYQAYSDHVAPAEKMKNLANQDPIALERILNRQKVHSGKTKACAIVEAAQRFLAIDVTEPAHLRPDDAEHRAQYTGVSGLGPVTWEYFTMLLSHDGVKADTWIRRFVERSVQRNVSSDEAGALIKEAANKLDVRETKLDYAVWNYASTTRLETMPKLS | not soluble
10 | MTLIEPDMNLRMPDISTTVETLNLISKMEAQKENIRSVIAPEHKHKYKDIENGLKGEEKVLIEQMAQHCEAFKANFKGAAQGDWVKSAMSEIDSIKDDLKKINSLEHHHHHH | not soluble
11 | MGSDKIHHHHHHMTSREDEIRDFLATHGYADWNRTPLAGDASSRRYQRLRSPTGAKAVLMDWSPEEGGDTQPFVDLAQYLRNLDISAPEIYAEEHARGLLLIEDLGDALFTEVINNDPAQEMPLYRAAVDLLIHLHDAQTPELARLDPETLSEMTRLAFSEYRYAILGDAAEDNRKRFEHRFAQILSAQLEGDMVFVHRDFHAQNLLWLPEREGLARVGVIDFQDAKLGHRAYDLVSLLQDARRDVPAQVEAQMIDHYIQATGVDESHFRSAYAVIAVQRNMRILGIFARLSQRFGKRHYIEFVPRVWAHFERGLAHPALASAAEEILNALPAPAPEVLERLRA | not soluble
12 | AKIIFIEHNGTRHEVEAKPGLTVMEAARDNGVPGIDADCGGACACSTCHAYVDPAWVDKLPKALPTETDMIDFAYEPNPATSRLTCQIKVTSLLDGLVVHLPEKQI | soluble
13 | MGSDKIHHHHHHMIGIEQYQKIQEYKELGLAQTKTAKALGITYSSVSKYWNMSEEDYVREAEQEKYHMDNYRQYILEQLKICPQIRDTNVYLKLMEAFPDLQVKRATFYRYMKALREQHGYQHTSKRKISPREVSPPGYEAQADFGQYKLKDMYGRIVRVYFFCMVLSYSRMKFVCFSPDPFTTKTGIKVHNYAFQCVWQV | not soluble
14 | MSVLYIQIRRNQITVRDLESKREVSGDAAFSNQRLLIANFFVAEKVLQDLVLQLHPRSTWHSFLPAKRMDIVVSALEMNEGGLSQVEERILHEVVAGATLMKYRQFHIHAQSAVLSDSAVMAMLKQK | soluble
15 | MKEDPRIIKTLSKLQKAFVMLLKTYDAGDINVRQISDEAGVTRGAFYSHFSDKKEFVNFTINELVGSLFNSSLKDSVGFVDEVNHKNAHGTNVLSVSNFFDKVAADYQTYTIVLDTEKLPQFTEVLKERLNSEIKTFAEYYGKKVKHDGFPIEVLSSYYVNGLIGMIRMWLDEGMVYTSHYMANAAKKILGTKIQIDSQNIDLSDFFVDLEHHHHHH | soluble
16 | MQTLERFFLFVTGDQPERFEKANSSCADSVILDLENAVSSEKKIIARENALNFMSNDEKVLIAVRAKIVITSRLAGSYPSVDGITTEFMKNELTIQNAIHSCKMGFSGKVCIHPPQISHVNRAFSYLKQEIEWVPQIMRLAQYPHGAFSHEGQMVDKPLLEKAKRILAHSILEHHHHHH | not soluble
17 | MNNTDPTSFESILAGVAKLRKEKSGADTTGSQSLEIDASKLQQQEPQTSRRINSNQVINAFNQQKPEEWTDSKATDDYNRKRPFRSTRPGKTVLVNTTQKENPLLNHLKSTNWRYVSSTGINMIYYDYLVRGRSVLFLTLTYHKLYVDYISRRMQPLSRNENNILIFIVDDNNSEDTLNDITKLCMFNGFTLLLAFNFEQAAKYIEYLNL | soluble
18 | MCSTFMHKFYNSFYFGVMLTTRKEEQMLSKIVWSLLKPQLSSRSYLYNKFVVPPLQIIYVQ | soluble
19 | MIYGILSKNLGMPTPTFLVCPDVVKFENVGQIAVVNGMVYLGGSVGIDKSGTLHKGLEEQTRQTFDNIRKCLEYANSGLDYIVSLNIFLSTSLSDSEEARFNELYREVFCVPATRPCRCCVRAQLQEGLLVEVVNVVAAQK | soluble
20 | MGSDKIHHHHHHMQLIFFRGMKELLSTMDLDTDANTIPELKERAHMLCARFLGGAWKTVPLEHLRISRIKGGMSNMLFLCRLSEVYPPIRNEPNKVLLRVYFNPETESHLVAESVIFTLLSERHLGPKLYGIFSGGRLEEYIPSRPLSCHEISLAHMSTKIAKRVAKVHQLEVPIWKEPDYLCEALQRWLKQLTGTVDAEHRFDLPEECGVSSVNCLDLARELEFLRAHISLSKSPVTFCHNDLQEGNILLPKASSGNIRMPSLSDETQALGNSLSAFNPADPRLVLIDFEYASYNYRAFDFANHFIEWTIDYDIDEAPFYKIQTENFPENDQMLEFFLNYLREQGNTRENELYKKSEDLVQETLPFVPVSHFFWGLRERSSVAVLQT | not soluble
21 | MFEKEKEGLIEVQNVYEIAPEDGTIIGMATEEEMEIAAELELQYYAHSRLLEANIQLDGSSYKELLQEFQEYERKSMSFWRAIHKRLAVPWAWVLRIDVANGPIYVSNGSSYYEEIDDEEDYE | not soluble
22 | MSLAMEHVDVLIVGAGLSGIGAAYHLQKHCPGKTYAILEGREAIGGTWDLFRYPGIRSDSDMYTLGYSFKPWKAAKAIADGPSILDYVRETAREHDIDRHIRFQHLVKRASWSSETATWTVEAEHDGKPVTLTCRFLHMCSGYYRYSAGYTPDFAGTERFKGRIVHPQHWPEDLDYSGKKVVVIGSGATAVTLVPEMAKTAAHVTMLQRSPTYVVSRPAEDGIANWLRSKLPAMTAYGITRWKNVLFQLFFFNLARKKPEKVKERLLGMVRDHLGPGYDVETHFTPRYNPWDQRLCLVPDADLFDAIKSGAASVVTDHIETFTETGIQLKSGKTLDADVIVTATGLQLQLLSGMEVVVDGKVADLSQSMSYKGMMFSDVPNLASVFGYTNASWTLKADLTSEYVCRLLNHMDRTGADYCVPRLDGEVEAAPWLDFSSGYITRSIGHFPKQGTRKPWKVHQNYALDLMTLRMGKVEDGVMQFGRKTGATAKAKPEKALEPAEGHHHHHH | soluble
23 | MTIDNYDNSKQDSSKYEVSGTGDGRNGDGGLPLVQCVARARIPTTQGPDIFLHLYSNNRDNKEHLAIVFGEDIRSRSLFRRRQCETQQDRMIRGAYIGKLYPGRTVADEDDRLGLALEFDDSTGELLASKATTWDAHNDTLVRIHSECYTGENAWSARCDCGEQFDRAGRLIACDHEPTSNIKGGNGHGVIVYLRQEGRGIGLGEKLKAYNLQDLGADTVQANLMLKHPVDARDFSLGKAILLDLGIGNVRLLTNNPEKIKQVDHAPYLKCVERVPMVPIHWTNSSEGIDSKEIEGYLRTKIERMGHLLTEPLKLHTNPQPTETSEAQNQNRMNSALSSTSTLAI | soluble
